In patent US20070065425A1 (LABORATOIRE FRANCAIS DU FRACTIONNEMENT ET DES …, published 2007):

T1: Factor VIII fragment 379-546Mut (R484A, Y487A, R489A, P492A), tagged (UniProt P00451 398-565, labeled in vitro with L-(35S) methionine)
T1 construct: Produced in rabbit reticulocyte lysate
T1 sequence: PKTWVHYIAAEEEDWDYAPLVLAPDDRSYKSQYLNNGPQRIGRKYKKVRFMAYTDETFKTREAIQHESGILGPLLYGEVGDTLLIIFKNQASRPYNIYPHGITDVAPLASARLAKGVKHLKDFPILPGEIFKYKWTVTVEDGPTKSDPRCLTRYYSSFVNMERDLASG

B1: 30D1 monoclonal anti-idiotypic antibody (antibody, mouse IgG1, V domains shown)
VH: EVQLQQSGPELVKPGASMKISCKASGYSFTDYTMNWVKQSHGKNLEWIGLINPYNVISSYNQKFKGKATLTVDKSSSTAYMELLSLTSEDSAVYYCARKGYGSSMFAYWGQGTLVTVSA
VL: DIVMTQSHKFMSTSVGGRVSITCKASQDVTTAVAWYQQKPGQSPKLLIYSASYRYTGVPDRFTGSGSGTDFTFTFSSVQAEDLAVYYCQQHYSIPWTFGGGTKLEIKR
notes: Tested as hybridoma supernatant and Protein G purified (SPR); also called 30D1 anti-Id; 30DA1
B2: BOIIB2 antibody (antibody, human IgG4, kappa, V domains shown)
VH: QVQLQESGPGLVKPSETLSLTCTVSGDSISDYYWSWIRQPPGKGLEWIGYFFYSGGSNYNPSLKSRVTMSVDTSKNQFSLKLGSVTAADTAVYYCARSQLRYYLDVWGQGTTVTVSS
VL: EIVLTQSPGTLSLSPGERATLSCRASQSVDSNYLAWYQQKPGQAPRVVIYGASNRATGIPDRFSGSGSGTEFTLTISRLDPEDFAVYYCQQYGSFFGQGTRLEIKR
notes: Human monoclonal IgG4 from a haemophilia A patient; also called anti-A2 antibody; FVIII anti-domain A2 BOIIB2 human antibody

Legend:
[1] = biological target: B2; assay: SPR (BIAcore), BOIIB2 immobilized on CM5, 30D1 as analyte
Description: The kinetics of fixation of the 30D1 anti-idiotypic antibody to the BOIIB2 inhibitor antibody was assessed by the method <<Surface plasmon resonance Biacore>> using the Pharmacia Biosensor BIAcore (Pharmacia Biosensor AB, Uppsala, Sweden). The BOIIB2 antibodies were immobilized on an activated surface of a probe CM5. The 30D1 anti-idiotypic antibodies were infused in several concentrations of immobilized BOIIB2 on the surface of the probe.

[2] = biological target: T1, Factor VIII fragment 379-546Mut (R484A, …); assay: immunoprecipitation of 35S-labelled fragment by BOIIB2 on Protein A Sepharose
Description: The immunoprecipitation of the transcribed genes is carried out as follows. Sample dilutions containing the specific antibodies are mixed with 40 up of Protein A Sepharose (Pharmacia) in 500 up of a suitable buffer, and the mixture is gently stirred for 1 hour at 4° C. The non-fixed antibodies are eliminated by means of a succession of centrifugations and washings. The complex antibody-Protein A Sepharose is resuspended in 300 up of buffer supplemented with 3 up of polypeptides of Factor VIII labeled in vitro with methionin L-(³⁵S), in order to incubate at 4° C. for 2 hours. The complexes antigens/antibodies are eluted from the beads by boiling for 3 minutes in 30 up of denaturating buffer and the radioactivity is counted. A second aliquot is analyzed by SDS-PAGE and visualized by autoradiography.
The fragments were immunoprecipitated by the human BOIIB2 antibody bound to Protein-A Sepharose. After washing, the complex was eluted and the radioactivity measured (in CPM) by scintillation and charged on SDS-PAGE, followed by an autoradiography. […] The anti-c-myc 9E10 antibody and the human plasma were used as positive and negative controls, respectively.

| Binder | Kd [1] | koff [1] | kon [1] | binding result [2] |
| --- | --- | --- | --- | --- |
| B1 | ≤ 170 pM | ≤ 1e-05 s⁻¹ | 60000 M⁻¹ s⁻¹ |  |
| B2 |  |  |  | no binding |
